The target in test [1] is biotinylated CRH (human and mouse). As to the kind of experiment: Octet in-tandem, row = 1st mAb; competitor (2nd mAb) PR303394. On the technique in general: In BLI a coated tip is dipped into the sample, and binding shifts an interference pattern.
For test [2] the target is unchanged. The test can be described thus: Octet in-tandem, row = 1st mAb; competitor (2nd mAb) PR006669.
Test [3] shares this target. The test can be described thus: Octet in-tandem, row = 1st mAb; competitor (2nd mAb) PR005660.
For test [4] the target is unchanged. The test can be described thus: competitive ELISA, coated 1st mAb; competitor PR006148. (In general: ELISA stands for enzyme-linked immunosorbent assay.)
For test [5] the target is unchanged. The test can be described thus: competitive ELISA, coated 1st mAb; competitor PR005660.
The target is the same in test [6]. The test can be described thus: Octet in-tandem, row = 1st mAb; competitor (2nd mAb) PR302309-8.
The target is the same in test [7]. As to the kind of experiment: competitive ELISA, coated 1st mAb; competitor PR302064.
The target is the same in test [8]. As to the kind of experiment: competitive ELISA, coated 1st mAb; competitor PR302050.
Test [9] shares this target. The test can be described thus: competitive ELISA, coated 1st mAb; competitor PR301777.
Test [10] shares this target. As to the kind of experiment: Octet in-tandem, row = 1st mAb; competitor (2nd mAb) PR302334.
The target is the same in test [11]. As to the kind of experiment: Octet in-tandem, row = 1st mAb; competitor (2nd mAb) PR301777.
Test [12] has the same target. As to the kind of experiment: competitive ELISA, coated 1st mAb; competitor PR004290.
The target is the same in test [13]. The test can be described thus: competitive ELISA, coated 1st mAb; competitor PR302069.
Test [14] has the same target. As to the kind of experiment: competitive ELISA, coated 1st mAb; competitor PR302055.
Test [15] has the same target. The test can be described thus: Octet in-tandem, row = 1st mAb; competitor (2nd mAb) PR302341-34.
Test [16] shares this target. The test can be described thus: competitive ELISA, coated 1st mAb; competitor PR006152.
The target is the same in test [17]. The test can be described thus: competitive ELISA, coated 1st mAb; competitor hIgG1.

Chain of biotinylated CRH (human and mouse) (peptide, as listed by the source): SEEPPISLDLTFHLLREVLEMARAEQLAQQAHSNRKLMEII

For the substance hIgG1 (antibody), the % Inhibition in test [1] turned out to be 10%; in test [2] it was 9%; in test [3], 12%; in test [4] it was 0%; in test [5] it was 0%; in [6], 15%. Also, the % Inhibition in test [7] was found to be 0%; in [8] it was 0%; in [9], 0%; in [10] it was 8%; in test [11] it was 9%; in test [12] it was 0%. Moreover, the % Inhibition in test [13] amounted to 0%; in test [14], 0%; in [15], 12%; in test [16] it was 0%; in test [17], 0%.

The term % Inhibition denotes the percentage by which the read-out fell short of the control.

Source of the values: US20260042834A1, “ANTI-CORTICOTROPIN-RELEASING HORMONE ANTIBODIES AND POLYCYSTIC OVARY SYNDROME” (HBM ALPHA THERAPEUTICS, INC., priority 2022, published 2026).
